Where a SMILES comes first, the peptide text is derived from it. Bridges are numbered along the chain shown (N, C = ends). [ ]: non-standard residue; d: D form. S5 = C=CCCC[C@](C)(N)C(=O)O
Key:
[1] = molecular target: T1, neuronal SNAREs and Syt1_QM (Rattus norvegicus, UniProt P21707, E295A/R281A/R398A/R399A/Y338W); test: Single vesicle content mixing assay, neuronal SNAREs and Syt1_QM; format: biochemical; conditions: 10 μM peptide, raw count; for Ca2+ triggered fusion events: 500 μM Ca2+
T1 construct: made in house
T1 sequence (P21707 whole entry R281A/E295A/Y338W/R398A/R399A, the tested form may be a part): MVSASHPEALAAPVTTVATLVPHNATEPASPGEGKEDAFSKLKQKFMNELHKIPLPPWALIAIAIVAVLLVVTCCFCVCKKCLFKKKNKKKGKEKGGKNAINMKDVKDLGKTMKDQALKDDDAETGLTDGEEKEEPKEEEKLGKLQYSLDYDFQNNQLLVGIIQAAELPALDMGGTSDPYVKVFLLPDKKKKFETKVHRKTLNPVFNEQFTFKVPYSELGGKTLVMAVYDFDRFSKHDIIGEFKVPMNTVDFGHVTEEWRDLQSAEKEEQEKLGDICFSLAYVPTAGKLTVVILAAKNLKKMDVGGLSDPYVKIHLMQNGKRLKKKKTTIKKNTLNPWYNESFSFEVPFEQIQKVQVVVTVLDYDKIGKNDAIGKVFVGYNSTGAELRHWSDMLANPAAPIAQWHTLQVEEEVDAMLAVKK
Excerpt: (§1) For single vesicle content mixing assay, the lipid composition of the SV, SG, VAMP2, or VAMP8 vesicles was phosphatidylcholine (PC) (48%), phosphatidylethanolamine (PE) (20%), phosphatidylserine (PS) (12%), and cholesterol (20%); for both the neuronal and airway PM vesicles the lipid composition was Brain Total Lipid Extract supplemented 3.5 mol % PIP2, and 0.1 mol % biotinylated phosphatidylethanolamine (PE).
(§2) The reconstitution method for neuronal PM and SV vesicles was described in detail previously (see Lai et al., 2017; Kyoung et al., 2011; and Lai et al., 2014). The same methods were used for airway PM, SG, VAMP2, and VAMP8 vesicles. Dried lipid films were dissolved in 110 mM OG buffer containing purified proteins at protein-to-lipid ratios of 1:200 for VAMP2 and Stx1A for SV and neuronal PM vesicles, respectively (or 1:200 for VAMP8 and Stx3 for SG and airway PM vesicles, respectively), and 1:800 for Syt1 for SV vesicles (or 1:1200 for Syt2 for SG vesicles).
(§3) A 3-5 fold excess of SNAP-25A or SNAP-23 (with respect to Stx1A or Stx3) and 3.5 mol % PIP2 were added to the protein-lipid mixture for neuronal or airway PM vesicles. […] For the preparation of SV, SG, VAMP2, or VAMP8 vesicles for single vesicle content mixing assay, 50 mM sulforhodamine B (Thermo Fisher Scientific) was added to the protein-lipid mixture. The vesicles subsequently formed during size exclusion chromatography using a Sepharose CL-4B column, packed under near constant pressure by gravity with a peristaltic pump (GE Healthcare) in a 5.5 ml column with a ˜5 ml bed volume that was equilibrated with buffer V (20 mM HEPES, pH 7.4, 90 mM NaCl) supplemented with 20 μM EGTA and 0.1% 2-mercaptoethanol. The eluent was subjected to dialysis into 21 of detergent-free buffer V supplemented with 20 μM EGTA, 0.1% 2-mercaptoethanol, 5 g of Bio-beads SM2 (Bio-Rad) and 0.8 g/L Chelex 100 resin (Bio-Rad). After 4 hours, the buffer was exchanged with 21 of fresh buffer V supplemented with 20 μM EGTA, 0.1% 2-mercaptoethanol and Bio-beads, and the dialysis continued for another 12 h (overnight). […] For ensemble lipid mixing assay, the reconstitution method is the same as that for the single vesicle content mixing assay, except that 50 mM sulforhodamine B was omitted for all the steps.
(§4) Single vesicle content mixing experiments. All single vesicle fusion and single molecule experiments were performed on a prism-type total internal reflection fluorescence (TIRF) microscope using 532 nm (green) laser (CrystaLaser) excitation. Two observation channels were created by a 640 nm single-edge dichroic beamsplitter (FF640-FDi01-25x36, Shemrock): one channel was used for the fluorescence emission intensity of the content dyes and the other channel for that of the Cy5 dye that are part of the injected Ca^2+-solution. The two channels were recorded on two adjacent rectangular areas (45×90 m^2) of a charge-coupled device (CCD) camera (iXon+DV 897E, Andor Technology). The imaging data were recorded with the smCamera software developed by Taekjip Ha, Johns Hopkins University, Baltimore.
(§5) Flow chambers were assembled by creating a “sandwich” consisting of a quartz slide and a glass coverslip that were both coated with polyethylene glycol (PEG) molecules consisting 0.1% (w/v) biotinylated-PEG except when stated otherwise, and using double-sided tape to create up to five flow-chambers.
(§6) The single vesicle content mixing assay described in Lai et al. (2014) was used to monitor vesicle-vesicle association, Ca^2+-independent, and Ca^2+-triggered fusion. The surface of the quartz slides was passivated by coating the surface with polyethylene glycol (PEG) molecules which alleviated non-specific binding of vesicles. The same protocol and quality controls (surface coverage and non-specific binding) were used as described previously (Kyoung et al., 2011; Kyoung et al., 2012) except that PEG-SVA (Laysan Bio) instead of mPEG-SCM (Laysan Bio) was used since it has a longer half-life. […]

neuronal SNAREs and Syt1 = test: Single vesicle content mixing assay, neuronal SNAREs and Syt1; format: biochemical; conditions: 10 μM peptide, raw count; for Ca2+ triggered fusion events: 500 μM Ca2+
Excerpt: as §1, §2, §3, §4, §5, §6

airway SNAREs and Syt2 = airway SNAREs and Syt2 (Rattus norvegicus, UniProt P29101); test: Single vesicle content mixing assay, airway SNAREs and Syt2 (airway PM and SG vesicles); format: biochemical; conditions: for Ca2+ triggered fusion events / Ca2+ independent fusion events: 10 μM peptide, raw count; for Ca2+ triggered fusion events: 500 μM Ca2+
Chain of airway SNAREs and Syt2 (P29101 whole entry, the tested form may be a part): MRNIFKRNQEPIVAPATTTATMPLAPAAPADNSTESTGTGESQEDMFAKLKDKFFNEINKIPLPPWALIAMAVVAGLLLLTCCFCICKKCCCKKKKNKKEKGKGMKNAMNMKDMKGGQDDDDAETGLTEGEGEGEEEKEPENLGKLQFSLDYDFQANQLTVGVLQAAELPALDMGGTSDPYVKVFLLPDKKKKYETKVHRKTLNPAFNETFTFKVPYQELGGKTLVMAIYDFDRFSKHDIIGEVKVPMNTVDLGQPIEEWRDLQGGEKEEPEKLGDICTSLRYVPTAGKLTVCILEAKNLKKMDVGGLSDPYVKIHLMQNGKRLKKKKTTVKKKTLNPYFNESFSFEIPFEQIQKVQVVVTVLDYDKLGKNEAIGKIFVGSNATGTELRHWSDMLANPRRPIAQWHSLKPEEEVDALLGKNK
Excerpt: as §1, §2, §3, §4, §5, §6

Syt1 C2B = Syt1 C2B (Rattus norvegicus, UniProt P21707); test: Bulk fluorescence anisotropy binding, Syt1 C2B; conditions: Cy3 labeled peptide
Chain of Syt1 C2B (P21707 271-421): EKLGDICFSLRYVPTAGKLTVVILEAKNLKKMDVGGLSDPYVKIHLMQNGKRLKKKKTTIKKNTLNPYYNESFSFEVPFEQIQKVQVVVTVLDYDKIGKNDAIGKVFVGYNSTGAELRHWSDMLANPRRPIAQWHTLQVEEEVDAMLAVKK
Experimental: (§7) Bulk fluorescence anisotropy measurements. In the bulk fluorescence anisotropy experiments, the P0 and SP9 peptides were labeled with the fluorescent dye Cy3 at the C-terminus. Anisotropy was measured with a Tecan Infinite […] fluorimeter using an excitation wavelength of 530±5 nm and emission wavelength of 580±5 nm at 27.2° C. The fluorescent dye labeled samples were diluted to 10 nM concentration in TBS (20 mM Tris, pH 7.5, 150 mM NaCl, 0.5 mM TCEP) for optimal read out.

Syt2 C2B = Syt2 C2B (Rattus norvegicus, UniProt P29101); test: Bulk fluorescence anisotropy binding, Syt2 C2B; conditions: Cy3 labeled peptide
Chain of Syt2 C2B (P29101 272-422): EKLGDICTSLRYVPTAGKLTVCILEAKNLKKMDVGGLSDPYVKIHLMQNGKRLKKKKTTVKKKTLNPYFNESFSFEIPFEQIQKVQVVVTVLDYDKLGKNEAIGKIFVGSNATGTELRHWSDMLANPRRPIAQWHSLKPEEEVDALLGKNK
Experimental: as §7

Row | Compound | Ca2+ triggered fusion events [1] | Ca2+ independent fusion events [1] | Ca2+ triggered fusion events (neuronal SNAREs and Syt1) | Ca2+ independent fusion events (neuronal SNAREs and Syt1) | Ca2+ triggered fusion events (airway SNAREs and Syt2) | Ca2+ independent fusion events (airway SNAREs and Syt2) | binding to C2B domain of Syt1 (Syt1 C2B) | binding to C2B domain of Syt2 (Syt2 C2B) | effect on Ca2+-triggered cumulative fusion probability (airway SNAREs and Syt2; up to 10 μM peptide) | effect on intrinsic Ca2+-independent fusion probability (airway SNAREs and Syt2; up to 10 μM peptide)
1 | CC[C@H](C)[C@H](NC(=O)[C@]1(C)CCCC=CCCC[C@](C)(NC(=O)[C@H](CCC(=O)O)NC(=O)[C@H](CCC(=O)O)NC(C)=O)C(=O)N[C@@H](CCCCN)C(=O)N[C@@H](CC(=O)O)C(=O)N[C@@H](C)C(=O)N1)C(=O)N[C@@H](CCCNC(=N)N)C(=O)N[C@@]1(C)CCCC=CCCC[C@@](C)(C(=O)N[C@@H](CC(=O)O)C(=O)N[C@@H](CCC(=O)O)C(=O)N[C@@H](CCC(N)=O)C(=O)N[C@@H](CS)C(N)=O)NC(=O)[C@H](CCSC)NC(=O)[C@H](C(C)C)NC(=O)[C@H](CC(C)C)NC1=O [SP9, Ac-EE(S5)KDA(S5)IR(S5)LVM(S5)DEQC-amide] (Ac-EE[S5]KDA[S5]IR[S5]LVM[S5]DEQC-NH2; staple 3-7, 10-14) | 260 | 242 | 272 | 165 | 250 | 274 |  |  |  | 
2 | Ac-SKD(S5)GIR(S5)LV(S5)LDE(S5)GEQL-amide (Ac-SKD[S5]GIR[S5]LV[S5]LDE[S5]GEQL-NH2; staple 11-15, 4-8; SMILES CC[C@H](C)[C@@H]1NC(=O)CNC(=O)[C@@](C)(NC(=O)[C@H](CC(=O)O)NC(=O)[C@H](CCCCN)NC(=O)[C@H](CO)NC(C)=O)CCCC=CCCC[C@@](C)(C(=O)N[C@@H](CC(C)C)C(=O)N[C@H](C(=O)N[C@@]2(C)CCCC=CCCC[C@@](C)(C(=O)NCC(=O)N[C@@H](CCC(=O)O)C(=O)N[C@@H](CCC(N)=O)C(=O)N[C@@H](CC(C)C)C(N)=O)NC(=O)[C@H](CCC(=O)O)NC(=O)[C@H](CC(=O)O)NC(=O)[C@H](CC(C)C)NC2=O)C(C)C)NC(=O)[C@H](CCCNC(=N)N)NC1=O) [SP10] | 367 | 252 | 495 | 263 | 273 | 327 |  |  |  | 
3 | Ac-SKD(S5)GIR(S5)LVMLDE(S5)GEQ(S5)DR-amide (Ac-SKD[S5]GIR[S5]LVMLDE[S5]GEQ[S5]DR-NH2; staple 15-19, 4-8; SMILES CC[C@H](C)[C@@H]1NC(=O)CNC(=O)[C@@](C)(NC(=O)[C@H](CC(=O)O)NC(=O)[C@H](CCCCN)NC(=O)[C@H](CO)NC(C)=O)CCCC=CCCC[C@@](C)(C(=O)N[C@@H](CC(C)C)C(=O)N[C@H](C(=O)N[C@@H](CCSC)C(=O)N[C@@H](CC(C)C)C(=O)N[C@@H](CC(=O)O)C(=O)N[C@@H](CCC(=O)O)C(=O)N[C@@]2(C)CCCC=CCCC[C@@](C)(C(=O)N[C@@H](CC(=O)O)C(=O)N[C@@H](CCCNC(=N)N)C(N)=O)NC(=O)[C@H](CCC(N)=O)NC(=O)[C@H](CCC(=O)O)NC(=O)CNC2=O)C(C)C)NC(=O)[C@H](CCCNC(=N)N)NC1=O) [SP1] | 282 | 226 | 210 | 235 | 275 | 251 |  |  |  | 
4 | Ac-SKDA(S5)IRT(S5)VM(S5)DEQ(S5)EQL-amide (Ac-SKDA[S5]IRT[S5]VM[S5]DEQ[S5]EQL-NH2; staple 12-16, 5-9; SMILES CC[C@H](C)[C@@H]1NC(=O)[C@@](C)(NC(=O)[C@H](C)NC(=O)[C@H](CC(=O)O)NC(=O)[C@H](CCCCN)NC(=O)[C@H](CO)NC(C)=O)CCCC=CCCC[C@@](C)(C(=O)N[C@H](C(=O)N[C@@H](CCSC)C(=O)N[C@@]2(C)CCCC=CCCC[C@@](C)(C(=O)N[C@@H](CCC(=O)O)C(=O)N[C@@H](CCC(N)=O)C(=O)N[C@@H](CC(C)C)C(N)=O)NC(=O)[C@H](CCC(N)=O)NC(=O)[C@H](CCC(=O)O)NC(=O)[C@H](CC(=O)O)NC2=O)C(C)C)NC(=O)[C@H]([C@@H](C)O)NC(=O)[C@H](CCCNC(=N)N)NC1=O) [SP4] | 248 | 222 | 210 | 261 | 231 | 237 |  |  |  | 
5 | EESKDAGIRTLVMLDEQGEQLD [Peptide P0, non-stapled SNAP-25A fragment used as a control, reference compound] |  |  | 591 | 493 | 219 | 113 | no binding | no binding | no effect | no effect

From US20250163122A1, “COMPOSITIONS AND METHODS FOR TREATING AIRWAY MUCUS DYSFUNCTION” (BOARD OF REGENTS, THE UNIVERSITY OF TEXAS SYSTEM, priority 2022, published 2025)
